Laboratory results published in the supplement of paper PMC10724198.
± gives the standard deviation of the averaged measurements.

Tested on: Saccharomyces cerevisiae
Experiment: protein stability index of tFT-peptide fusion (C-terminal peptide) (PSI (0-1 scale)); higher = more stable (slower turnover)
Conditions: genetic background: wild type; temperature: 30 C
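Note: PSI is a weighted mean of sequencing reads over stability bins, variants kept only with over 10 reads, mCherry proximal and sfGFP distal, peptide attached via GGGS linker.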

Row | Sequence | protein stability index
1 | TLRILTRRGLVP | 0.703 ± 0.12
2 | TLSHPAHLKPMR | 0.669 ± 0.051
3 | TLSQILVSSSLS | 0.5896 ± 0.0019
4 | TLSSVSEKVVHL | 0.675 ± 0.019
5 | TNGHNGQENGEE | 0.602 ± 0.06
6 | TNTQRYRKTRST | 0.721 ± 0.054
7 | TNYQKANIRINN | 0.667 ± 0.035
8 | TPAPFSSHLVRR | 0.723 ± 0.083
9 | TPASSLFRCASR | 0.656 ± 0.028
10 | TPATRCLASDSR | 0.766 ± 0.11
11 | TPDVLGPLFPGD | 0.642 ± 0.099
12 | TPFLLHPPSPDL | 0.607 ± 0.051
13 | TPGYWVPPPTIP | 0.66 ± 0.027
14 | TPLLAALRPTTS | 0.764 ± 0.07
15 | TPLPPEHLPRSR | 0.661 ± 0.031
16 | TPMDVEVPIAPI | 0.753 ± 0.063
17 | TPNKKTGNQYPG | 0.685 ± 0.038
18 | TPNLHPPSAATP | 0.668 ± 0.038
19 | TPNYPLHPTKKI | 0.681 ± 0.0084
20 | TPPAEGTSQTKL | 0.659 ± 0.054
21 | TPPFPPSPFLTL | 0.783 ± 0.039
22 | TPPPFRLPAPSL | 0.71 ± 0.037
23 | TPPPLSAPSYAG | 0.697 ± 0.014
24 | TPPPPPPFPLPP | 0.654 ± 0.031
25 | TPPPSSLVIFFI | 0.675 ± 0.11

Row | Sequence | protein stability index
26 | TPPRLLLPAATT | 0.7244 ± 0.0061
27 | TPPSPPLPNQLP | 0.696 ± 0.27
28 | TPRLVFFLPLLP | 0.658 ± 0.029
29 | TPRSPFPPLPPP | 0.698 ± 0.049
30 | TPSLLPSPPFPL | 0.733 ± 0.02
31 | TPSPAPPTPFTP | 0.659 ± 0.023
32 | TPSSDFKPTGVR | 0.654 ± 0.054
33 | TPTFALIHPTET | 0.745 ± 0.031
34 | TPTPLTRRPTQV | 0.673 ± 0.041
35 | TPVPPLLSRCYP | 0.691 ± 0.044
36 | TPVSTNHFYTLE | 0.613 ± 0.0094
37 | TPWGPGAAAAPP | 0.684 ± 0.043
38 | TQKKSTQLIKKK | 0.698 ± 0.067
39 | TQRTSRDPLRAP | 0.652 ± 0.016
40 | TQSYLVSLRCGF | 0.796 ± 0.13
41 | TRDLWWNVRVRA | 0.543 ± 0.015
42 | TRFLWYFVPTTK | 0.704 ± 0.071
43 | TRGCIRWRVVRR | 0.7 ± 0.035
44 | TRLSTPGYLILS | 0.724 ± 0.016
45 | TRRHKPNSGTRP | 0.69465 ± 7.1e-06
46 | TRSNEERKGKKS | 0.731 ± 0.14
47 | TRTFRPPPALPH | 0.691 ± 0.068
48 | TRTGSTPRGSTR | 0.684 ± 0.069
49 | TRYIRKSKTKGA | 0.643 ± 0.014
50 | TSAASPVRYGGS | 0.65 ± 0.014

Row | Sequence | protein stability index
51 | TSFNQCRVFCRT | 0.614 ± 0.049
52 | TSLSVGVFSSPV | 0.647 ± 0.02
53 | TSPLPRPPPPSY | 0.61 ± 0.043
54 | TSPPPLPLPSLR | 0.686 ± 0.013
55 | TSPTIPSTPFSN | 0.704 ± 0.087
56 | TSSHLLFISSMI | 0.638 ± 0.034
57 | TSSPHGQSVTEP | 0.67 ± 0.05
58 | TSSRHNEVIKGC | 0.706 ± 0.033
59 | TSTQVMYVSCCL | 0.63 ± 0.014
60 | TSVFPLFSPLRS | 0.721 ± 0.029
61 | TSWGSRWLPYAS | 0.665 ± 0.025
62 | TTFHLCLFQKSS | 0.584 ± 0.0071
63 | TTGGRGSRGGGR | 0.723 ± 0.039
64 | TTKKMVRIVSTV | 0.571 ± 0.052
65 | TTPPPPPRHPAP | 0.696 ± 0.019
66 | TTPTPPPALPLP | 0.69 ± 0.019
67 | TTQGICWMAKGV | 0.695 ± 0.0088
68 | TTTQIIRISKSR | 0.673 ± 0.044
69 | TTYKRRTSKTLS | 0.679 ± 0.024
70 | TVCGWSHLFVYN | 0.669 ± 0.026
71 | TVFGLLHALLYS | 0.724 ± 0.037
72 | TVGLSLGRGSGD | 0.67 ± 0.024
73 | TVGSLNSEIAGK | 0.691 ± 0.057
74 | TVIDVIKLMLHL | 0.583 ± 0.044
75 | TVKYVVSTRAFI | 0.627 ± 0.044

Row | Sequence | protein stability index
76 | TVRFYHGSFRAP | 0.727 ± 0.062
77 | TWGCAGAIRSVG | 0.689 ± 0.094
78 | TWPSGRASGHVG | 0.702 ± 0.0079
79 | TYFMSAFWPPGV | 0.631 ± 0.03
80 | TYGRPICFSFKR | 0.701 ± 0.049
81 | TYKNTVTRTKAY | 0.658 ± 0.02
82 | TYRGKIVAPGVL | 0.656 ± 0.053
83 | TYSTDRPGLHTW | 0.698 ± 0.074
84 | TYTPQVSSVFPI | 0.698 ± 0.018
85 | VACSVVVPGLGG | 0.69 ± 0.017
86 | VAGATGRWIGHG | 0.6771 ± 0.0045
87 | VAGGLRGLGLRA | 0.67 ± 0.053
88 | VAGGWVPGRGEG | 0.69 ± 0.025
89 | VAGWDRETGAWG | 0.58 ± 0.083
90 | VAIRLLCSPLGK | 0.64 ± 0.029
91 | VAIVGCVGKLIR | 0.6468 ± 0.0036
92 | VAKFYQVLMSEG | 0.684 ± 0.014
93 | VALNCWGYQWMG | 0.689 ± 0.04
94 | VALSFYVLRRVP | 0.594 ± 0.015
95 | VALTYRSAGKWA | 0.693 ± 0.058
96 | VAMAGQQLYVTI | 0.665 ± 0.07
97 | VAPPPAPFPPIP | 0.627 ± 0.023
98 | VARADLVVTFRI | 0.703 ± 0.073
99 | VASKAGVLFGIR | 0.673 ± 0.12
100 | VAVAAPVVRAVI | 0.69 ± 0.054

Row | Sequence | protein stability index
101 | VAVPGRFTGEGV | 0.649 ± 0.061
102 | VAVRARRWASGP | 0.727 ± 0.055
103 | VCARSVLFFWAA | 0.782 ± 0.25
104 | VCDFVLALRGLT | 0.649 ± 0.029
105 | VCGCWWWCGVGW | 0.657 ± 0.043
106 | VCGGCCEVEVGM | 0.622 ± 0.041
107 | VCGGVGGGDNGG | 0.739 ± 0.036
108 | VCGLLGGVWLCL | 0.611 ± 0.021
109 | VCGREVKCGEGY | 0.691 ± 0.027
110 | VCGSILSVFRAY | 0.571 ± 0.0016
111 | VCGSIRVIAWGD | 0.671 ± 0.057
112 | VCLPPPPLPPSC | 0.692 ± 0.041
113 | VCPPPIGYHSYQ | 0.6674 ± 0.0019
114 | VCRGWGVCGEWG | 0.6243 ± 0.0025
115 | VCRPLYNSMFGR | 0.691 ± 0.023
116 | VCSRGVCGFLSG | 0.67 ± 0.01
117 | VCTVSGFGVLGA | 0.751 ± 0.15
118 | VCVAVVGGGCRG | 0.5726 ± 0.0032
119 | VCVSLNVGGVRF | 0.658 ± 0.024
120 | VDIKQDTTNLRL | 0.718 ± 0.0086
121 | VDLCRPLSRPTV | 0.703 ± 0.016
122 | VDLGAGVCSAVC | 0.6195 ± 0.0056
123 | VDLYVRRVGVGG | 0.631 ± 0.037
124 | VDRRCTGLISSS | 0.668 ± 0.05
125 | VEAWGVGVGSTV | 0.676 ± 0.021

Row | Sequence | protein stability index
126 | VECPFGTAGCHI | 0.659 ± 0.057
127 | VEESNQILERQS | 0.671 ± 0.0093
128 | VEFGAPGFVEEW | 0.734 ± 0.021
129 | VEFGGICSYVGC | 0.724 ± 0.036
130 | VEFVSKSLGVGW | 0.6756 ± 0.0053
131 | VEPTSDNGVVRR | 0.662 ± 0.025
132 | VESGVREEKCMS | 0.708 ± 0.11
133 | VESSSMKGLLCD | 0.66 ± 0.095
134 | VFACVHPLASLT | 0.681 ± 0.048
135 | VFCSLAWFGLLL | 0.598 ± 0.054
136 | VFFLHGLVIYED | 0.563 ± 0.069
137 | VFGAAGVRFFVG | 0.58 ± 0.022
138 | VFGRSFFRLFRG | 0.6444 ± 0.0031
139 | VFGSYFFIPFFL | 0.498 ± 0.016
140 | VFKLRLPAVPHT | 0.734 ± 0.09
141 | VFLSCPCLFFWV | 0.56 ± 0.022
142 | VFLVLFDRLLPL | 0.669 ± 0.0073
143 | VFMVLLLGFRRF | 0.549 ± 0.011
144 | VFRCSGLFFRDG | 0.6621 ± 0.0033
145 | VFRHIGVIYNNF | 0.65 ± 0.013
146 | VFSALAYVVFKG | 0.598 ± 0.032
